Test results from patent US20170253660A1.

Legend:
[1] = target: human CD16 Fc receptor on NK92-MI cells (human) (UniProt P08637); test: cell-based or functional assay; conditions: for LAN1-CD16 Potency: scale: relative to m3F8
[2] = target: human CD32 Fc receptor on NK92-MI cells (human); test: cell-based or functional assay; conditions: for LAN1-CD32 Potency: scale: relative to m3F8

human CD16 Fc receptor on NK92-MI cells (human), sequence (P08637 17-254): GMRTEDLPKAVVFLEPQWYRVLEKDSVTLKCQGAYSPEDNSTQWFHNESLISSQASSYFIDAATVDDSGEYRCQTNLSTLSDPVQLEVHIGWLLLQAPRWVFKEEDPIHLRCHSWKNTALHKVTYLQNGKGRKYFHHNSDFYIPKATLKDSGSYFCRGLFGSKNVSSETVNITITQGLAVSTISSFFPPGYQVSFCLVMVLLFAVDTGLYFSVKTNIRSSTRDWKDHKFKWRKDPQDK

Substance: 14.G2a (antibody)
- Antibody potency using NK92-CD16 ADCC, BE(1)N (relative potency (m3F8 = 1)) [1]: 1
- Antibody potency using NK92-CD16 ADCC, LAN1 (relative potency (m3F8 = 1)) [1]: 0.4
- Antibody potency using NK92-CD16 ADCC, NMB7 (relative potency (m3F8 = 1)) [1]: 1
- Antibody potency using NK92-CD16 ADCC, SHEP1 (relative potency (m3F8 = 1)) [1]: 1
- Antibody potency using NK92-CD16 ADCC, SKNLP (relative potency (m3F8 = 1)) [1]: 1
- M14-CD16 Potency (relative to m3F8) [1]: 1
- LAN1-CD16 Potency [1]: 4
- M14-CD32 Potency (relative to m3F8) [2]: 6
- LAN1-CD32 Potency [2]: 2

Substance: ch14.18 (antibody)
- Antibody potency using NK92-CD16 ADCC, LAN1 (relative potency (m3F8 = 1)) [1]: 4
- Antibody potency using NK92-CD16 ADCC, SHEP1 (relative potency (m3F8 = 1)) [1]: 3
- Antibody potency using NK92-CD16 ADCC, SKNLP (relative potency (m3F8 = 1)) [1]: 8
- M14-CD16 Potency (relative to m3F8) [1]: 9
- M14-CD32 Potency (relative to m3F8) [2]: 21
- LAN1-CD32 Potency [2]: 8

Substance: heat modified m3F8 (antibody)
- Antibody potency using NK92-CD16 ADCC, LAN1 (relative potency (m3F8 = 1)) [1]: 0.2

Substance: murine 3F8 (antibody)
- Antibody potency using NK92-CD16 ADCC, BE(1)N (relative potency (m3F8 = 1)) [1]: 1
- Antibody potency using NK92-CD16 ADCC, LAN1 (relative potency (m3F8 = 1)) [1]: 1
- Antibody potency using NK92-CD16 ADCC, NMB7 (relative potency (m3F8 = 1)) [1]: 1
- Antibody potency using NK92-CD16 ADCC, SHEP1 (relative potency (m3F8 = 1)) [1]: 1
- Antibody potency using NK92-CD16 ADCC, SKNLP (relative potency (m3F8 = 1)) [1]: 1
- M14-CD16 Potency (relative to m3F8) [1]: 1
- LAN1-CD16 Potency [1]: 1
- M14-CD32 Potency (relative to m3F8) [2]: 1
- LAN1-CD32 Potency [2]: 1
